± gives the standard deviation of the averaged measurements.
Experiment: total protein half-life in vivo (active degradation + dilution); higher = more stable protein
[1] = E. coli NCM3722 delta-clpP delta-lon delta-hslV, growth: N-lim chemostat, doubling time 6 h
[2] = E. coli NCM3722 delta-clpP, growth: N-lim chemostat, doubling time 6 h
[3] = E. coli NCM3722 delta-hslV, growth: N-lim chemostat, doubling time 6 h
[4] = E. coli NCM3722 delta-lon, growth: N-lim chemostat, doubling time 6 h
[5] = E. coli NCM3722 delta-smpB, growth: N-lim chemostat, doubling time 6 h
[6] = wild type E. coli NCM3722, growth: C-lim chemostat, doubling time 6 h
[7] = wild type E. coli NCM3722, growth: C-lim chemostat, doubling time 12 h
[8] = wild type E. coli NCM3722, growth: N-lim chemostat, doubling time 6 h
[9] = wild type E. coli NCM3722, growth: N-lim chemostat, doubling time 12 h
[10] = wild type E. coli NCM3722, growth: P-lim chemostat, doubling time 6 h
[11] = wild type E. coli NCM3722, growth: P-lim chemostat, doubling time 12 h
[12] = wild type E. coli NCM3722, growth: C-lim chemostat, doubling time 3 h

Sequence | total protein half-life in vivo [1] [h] | total protein half-life in vivo [2] [h] | total protein half-life in vivo [3] [h] | total protein half-life in vivo [4] [h] | total protein half-life in vivo [5] [h] | total protein half-life in vivo [6] [h] | total protein half-life in vivo [7] [h] | total protein half-life in vivo [8] [h] | total protein half-life in vivo [9] [h] | total protein half-life in vivo [10] [h] | total protein half-life in vivo [11] [h] | total protein half-life in vivo [12] [h]
MKTGPLNESELEWLDDILTKYNTDHAILDVAELDGLLTAVLSSPQEIEPEQWLVAVWGGADYVPRWASEKEMTRFMNLAFQHMADTAERLNEFPEQFEPLFGLREVDGSELTIVEEWCFGYMRGVALSDWSTLPDSLKPALEAIALHGTEENFERVEKMSPEAFEESVDAIRLAALDLHAYWMAHPQEKAVQQPIKAEEKPGRNDPCPCGSGKKFKQCCLH [P0AD05] | 5.402 ± 0.046 | 5.13 ± 1.1 | 4.22 ± 0.47 | 4.39 ± 0.54 | 3.3 ± 0.53 | 5.21 ± 1.5 | 8.89 ± 1.9 | 3.93 ± 0.25 | 5.34 ± 1.1 | 4.67 ± 0.34 | 8.41 ± 0.26 | –
MIKNLPQIVLLNIVGLALFLSWYIPVNHGFWLPIDADIFYFFNQKLVESKAFLWLVALTNNRAFDGCSLLAMGMLMLSFWLKENAPGRRRIVIIGLVMLLTAVVLNQLGQALIPVKRASPTLTFTDINRVSELLSVPTKDASRDSFPGDHGMMLLIFSAFMWRYFGKVAGLIALIIFVVFAFPRVMIGAHWFTDIIVGSMTVILIGLPWVLLTPLSDRLITFFDKSLPGKNKHFQNK | 6.44 ± 0.069 | – | 5.96 | 5.5 ± 0.33 | 4.98 ± 0.75 | 5.87 ± 0.17 | – | 5.91 | 9.71 | 5.76 ± 0.068 | 14.4 | > 4
MARSKTAQPKHSLRKIAVVVATAVSGMSVYAQAAVEPKEDTITVTAAPAPQESAWGPAATIAARQSATGTKTDTPIQKVPQSISVVTAEEMALHQPKSVKEALSYTPGVSVGTRGASNTYDHLIIRGFAAEGQSQNNYLNGLKLQGNFYNDAVIDPYMLERAEIMRGPVSVLYGKSSPGGLLNMVSKRPTTEPLKEVQFKAGTDSLFQTGFDFSDSLDDDGVYSYRLTGLARSANAQQKGSEEQRYAIAPAFTWRPDDKTNFTFLSYFQNEPETGYYGWLPKEGTVEPLPNGKRLPTDFNEGAKNNTYSRNEKMVGYSFDHEFNDTFTVRQNLRFAENKTSQNSVYGYGVCSDPANAYSKQCAALAPADKGHYLARKYVVDDEKLQNFSVDTQLQSKFATGDIDHTLLTGVDFMRMRNDINAWFGYDDSVPLLNLYNPVNTDFDFNAKDPANSGPYRILNKQKQTGVYVQDQAQWDKVLVTLGGRYDWADQESLNRVAGTTDKRDDKQFTWRGGVNYLFDNGVTPYFSYSESFEPSSQVGKDGNIFAPSKGKQYEVGVKYVPEDRPIVVTGAVYNLTKTNNLMADPEGSFFSVEGGEIRARGVEIEAKAALSASVNVVGSYTYTDAEYTTDTTYKGNTPAQVPKHMASLWADYTFFDGPLSGLTLGTGGRYTGSSYGDPANSFKVGSYTVVDALVRYDLARVGMAGSNVALHVNNLFDREYVASCFNTYGCFWGAERQVVATATFRF | 6.92 ± 0.69 | 6.41 ± 0.62 | 6.62 ± 0.65 | 6.11 ± 0.76 | – | 6.64 ± 0.37 | 14.3 ± 1.2 | 6.14 ± 0.072 | 11.6 ± 6.1 | – | 13 ± 0.45 | 3.36 ± 0.23
MTQPLVGKQILIVEDEQVFRSLLDSWFSSLGATTVLAADGVDALELLGGFTPDLMICDIAMPRMNGLKLLEHIRNRGDQTPVLVISATENMADIAKALRLGVEDVLLKPVKDLNRLREMVFACLYPSMFNSRVEEEERLFRDWDAMVDNPAAAAKLLQELQPPVQQVISHCRVNYRQLVAADKPGLVLDIAALSENDLAFYCLDVTRAGHNGVLAALLLRALFNGLLQEQLAHQNQRLPELGALLKQVNHLLRQANLPGQFPLLVGYYHRELKNLILVSAGLNATLNTGEHQVQISNGVPLGTLGNAYLNQLSQRCDAWQCQIWGTGGRLRLMLSAE [P0AEV1] | 3.97 ± 0.57 | 3.09 ± 0.13 | 3.094 ± 0.028 | 3.57 ± 0.32 | 2.961 ± 0.028 | 4.34 ± 0.48 | 8.52 ± 0.76 | 3.39 ± 0.12 | 5.16 ± 0.3 | 5.53 ± 0.37 | 10.1 ± 0.53 | 2.72 ± 0.33
MYAAKGTQAYAQIGVESAVMSASQQQLVTMLFDGVLSALVRASLFMQDNNQQGKGVSLSKAINIIENGLRVSLDEESKDELTQNLIALYSYMVRRLLQANLRNDVSAVEEVEALMRNIADAWKESLLSPSLIQDPV | – | – | – | – | – | – | – | – | – | – | – | 0.207 ± 0.029
MNKYLKYFSGTLVGLMLSTSAFAAAEYAVVLKTLSNPFWVDMKKGIEDEAKTLGVSVDIFASPSEGDFQSQLQLFEDLSNKNYKGIAFAPLSSVNLVMPVARAWKKGIYLVNLDEKIDMDNLKKAGGNVEAFVTTDNVAVGAKGASFIIDKLGAEGGEVAIIEGKAGNASGEARRNGATEAFKKASQIKLVASQPADWDRIKALDVATNVLQRNPNIKAIYCANDTMAMGVAQAVANAGKTGKVLVVGTDGIPEARKMVEAGQMTATVAQNPADIGATGLKLMVDAEKSGKVIPLDKAPEFKLVDSILVTQ | 4 ± 0.15 | 5.04 ± 0.31 | 5.783 ± 0.043 | 6.64 ± 0.52 | 5.82 ± 0.24 | 6.52 ± 2 | 9.15 ± 0.44 | 5.9 ± 0.064 | 12.3 ± 0.66 | 5.91 ± 0.37 | 11.3 ± 0.52 | 3.15 ± 0.034
MSELIVSRQQRVLLLTLNRPAARNALNNALLMQLVNELEAAATDTSISVCVITGNARFFAAGADLNEMAEKDLAATLNDTRPQLWARLQAFNKPLIAAVNGYALGAGCELALLCDVVVAGENARFGLPEITLGIMPGAGGTQRLIRSVGKSLASKMVLSGESITAQQAQQAGLVSDVFPSDLTLEYALQLASKMARHSPLALQAAKQALRQSQEVALQAGLAQERQLFTLLAATEDRHEGISAFLQKRTPDFKGR | 5.63 | – | – | – | – | – | 6.46 | – | – | – | 6.46 | 2.67
MLHKKTLLFAALSAALWGGATQAADAAVVASLKPVGFIASAIADGVTETEVLLPDGASEHDYSLRPSDVKRLQNADLVVWVGPEMEAFMQKPVSKLPGAKQVTIAQLEDVKPLLMKSIHGDDDDHDHAEKSDEDHHHGDFNMHLWLSPEIARATAVAIHGKLVELMPQSRAKLDANLKDFEAQLASTETQVGNELAPLKGKGYFVFHDAYGYFEKQFGLTPLGHFTVNPEIQPGAQRLHEIRTQLVEQKATCVFAEPQFRPAVVESVARGTSVRMGTLDPLGTNIKLGKTSYSEFLSQLANQYASCLKGD | 3.68 ± 0.41 | 4.85 ± 0.4 | 5.99 ± 0.29 | 7.17 ± 0.96 | – | 5.54 ± 0.29 | 9.55 ± 1.5 | – | 13.6 ± 1.4 | 5.24 ± 0.2 | 11.4 ± 2.3 | 2.86 ± 0.12
MKIKNILLTLCTSLLLTNVAAHAKEVKIGMAIDDLRLERWQKDRDIFVKKAESLGAKVFVQSANGNEETQMSQIENMINRGVDVLVIIPYNGQVLSNVVKEAKQEGIKVLAYDRMINDADIDFYISFDNEKVGELQAKALVDIVPQGNYFLMGGSPVDNNAKLFRAGQMKVLKPYVDSGKIKVVGDQWVDGWLPENALKIMENALTANNNKIDAVVASNDATAGGAIQALSAQGLSGKVAISGQDADLAGIKRIAAGTQTMTVYKPITLLANTAAEIAVELGNGQEPKADTTLNNGLKDVPSRLLTPIDVNKNNIKDTVIKDGFHKESEL | 4.59 ± 0.8 | 5.33 ± 0.069 | 5.88 ± 0.42 | 4.43 | 6.1 ± 0.13 | 5.41 ± 0.45 | 8.38 ± 1.2 | 5.53 ± 0.86 | 11.2 ± 2.2 | 5.733 ± 0.025 | 11.9 ± 0.15 | 2.99 ± 0.08
MNNMFEPPKNYNEMLPKLHKATFLNTLIYCILLVIYEYIPLITLPTKYVPPIKDHESFINWALSFGILPCAFAIFAYLISGALDLHNNAAKLLRVRYLWDKHLIIKPLSRRAGVNRKLNKDEAHNVMSNLYYPEVRKIEDKHYIELFWNKVYYFWIFFEFSIIALISFLIIFFCKQMDIFHVEGSLLSLFFFVILSFSVSGIIFALTVKPRTESQVGKIPDDKIKEFFTKNNIN | 5.36 | – | 4.62 | – | 5.48 ± 0.069 | 4.97 ± 0.76 | 10.6 ± 0.83 | 5.04 | 7.86 | 5.56 ± 0.71 | 11.3 ± 1.6 | 2.94
MQTFQADLAIVGAGGAGLRAAIAAAQANPNAKIALISKVYPMRSHTVAAEGGSAAVAQDHDSFEYHFHDTVAGGDWLCEQDVVDYFVHHCPTEMTQLELWGCPWSRRPDGSVNVRRFGGMKIERTWFAADKTGFHMLHTLFQTSLQFPQIQRFDEHFVLDILVDDGHVRGLVAMNMMEGTLVQIRANAVVMATGGAGRVYRYNTNGGIVTGDGMGMALSHGVPLRDMEFVQYHPTGLPGSGILMTEGCRGEGGILVNKNGYRYLQDYGMGPETPLGEPKNKYMELGPRDKVSQAFWHEWRKGNTISTPRGDVVYLDLRHLGEKKLHERLPFICELAKAYVGVDPVKEPIPVRPTAHYTMGGIETDQNCETRIKGLFAVGECSSVGLHGANRLGSNSLAELVVFGRLAGEQATERAATAGNGNEAAIEAQAAGVEQRLKDLVNQDGGENWAKIRDEMGLAMEEGCGIYRTPELMQKTIDKLAELQERFKRVRITDTSSVFNTDLLYTIELGHGLNVAECMAHSAMARKESRGAHQRLDEGCTERDDVNFLKHTLAFRDADGTTRLEYSDVKITTLPPAKRVYGGEADAADKAEAANKKEKANG | 5.99 ± 0.19 | 5.68 ± 0.083 | 6.59 ± 0.5 | 6.24 ± 0.66 | 5.45 ± 0.11 | 6.38 ± 0.42 | 12.1 ± 1.9 | 6.2 ± 0.28 | 11.3 ± 1.7 | 6.03 ± 0.064 | 13.4 ± 0.38 | 2.97 ± 0.033

— the supplement of paper PMC11246515
